According to patent US20170363644A1 (ROCKEFELLER UNIVERSITY, published 2017):
Where no end group is shown, it is not given here.

Molecular target: T1, factor XII (FXII) (human, UniProt P00748 20-615)
T1 construct: Endogenous FXII in human plasma in the pulldown; purified FXII in the chromogenic assay; also called FXII zymogen
T1 sequence (looked up): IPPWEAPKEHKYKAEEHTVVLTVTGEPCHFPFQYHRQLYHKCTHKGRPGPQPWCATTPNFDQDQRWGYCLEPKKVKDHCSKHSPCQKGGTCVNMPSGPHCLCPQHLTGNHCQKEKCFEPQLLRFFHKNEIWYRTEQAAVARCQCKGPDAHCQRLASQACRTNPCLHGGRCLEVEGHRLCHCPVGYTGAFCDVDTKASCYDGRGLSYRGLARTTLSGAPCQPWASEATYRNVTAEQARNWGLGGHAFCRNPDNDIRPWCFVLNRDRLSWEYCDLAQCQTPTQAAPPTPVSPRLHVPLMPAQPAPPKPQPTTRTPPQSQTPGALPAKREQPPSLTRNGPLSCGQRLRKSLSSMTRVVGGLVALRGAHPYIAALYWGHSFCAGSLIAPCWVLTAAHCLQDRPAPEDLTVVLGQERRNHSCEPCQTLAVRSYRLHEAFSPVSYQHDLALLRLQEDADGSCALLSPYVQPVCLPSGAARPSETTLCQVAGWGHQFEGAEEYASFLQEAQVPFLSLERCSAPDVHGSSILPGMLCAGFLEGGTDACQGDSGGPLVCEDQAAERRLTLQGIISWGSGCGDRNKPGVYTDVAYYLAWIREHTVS
Test: streptavidin bead pulldown from human plasma, Western blot for FXII

B1: biotinylated amylin (peptide, UniProt P10997 34-70, looked up)
peptide: KCNTATCATQRLANFLVHSSNNFGAILSSTNVGSNTY
modifications: ends and bridges not checked; also: biotinylated (site not given here)
notes: Control aggregating peptide in the pulldown
binding result: no binding (tested: 500 Nm)
